Source: the Human Domainome abundance scans (Beltran et al. 2025)
± gives the uncertainty stated by the source.

B1: POU domain, class 3, transcription factor 3, residues 408 to 463; numbered along this chain, P20264 (parent)
chain: KKRTSIEVSVKGALESHFLKCPKPSAQEITNLADSLQLEKEVVRVWFCNRRQKEKR

Variants of: B1
Assay: abundance fitness (aPCA) (normalised: wild type 0, dead -1); higher = more abundant; growth selection in yeast, the domain comes from the species named
Settings: Homo sapiens

KKRTSIEVSVKDALESHFLKCPKPSAQEITNLADSLQLEKEVVRVWFCNRRQKEKR [G12D] and KKRTSIEVSVKAALESHFLKCPKPSAQEITNLADSLQLEKEVVRVWFCNRRQKEKR [G12A] are within error of each other in abundance fitness: 0.048 ± 0.1 for the first, 0.227 ± 0.087 for the second.

Compared with KKRTSIEVSVKCALESHFLKCPKPSAQEITNLADSLQLEKEVVRVWFCNRRQKEKR [G12C], KKRTSIEVCVKGALESHFLKCPKPSAQEITNLADSLQLEKEVVRVWFCNRRQKEKR [S9C] is lower in abundance fitness: 0.096 ± 0.12 for the first, -0.247 ± 0.097 for the second.

KKRTSIEVNVKGALESHFLKCPKPSAQEITNLADSLQLEKEVVRVWFCNRRQKEKR [S9N] and KKRTSIEVAVKGALESHFLKCPKPSAQEITNLADSLQLEKEVVRVWFCNRRQKEKR [S9A] are within error of each other in abundance fitness: 0.166 ± 0.17 for the first, 0.054 ± 0.088 for the second.

KKRTSIEVGVKGALESHFLKCPKPSAQEITNLADSLQLEKEVVRVWFCNRRQKEKR [S9G] and KKRTSIEVHVKGALESHFLKCPKPSAQEITNLADSLQLEKEVVRVWFCNRRQKEKR [S9H] are within error of each other in abundance fitness: 0.027 ± 0.065 for the first, 0.092 ± 0.37 for the second.

KKRTSIEVYVKGALESHFLKCPKPSAQEITNLADSLQLEKEVVRVWFCNRRQKEKR [S9Y] and KKRTSIEVLVKGALESHFLKCPKPSAQEITNLADSLQLEKEVVRVWFCNRRQKEKR [S9L] are within error of each other in abundance fitness: -0.015 ± 0.22 for the first, -0.206 ± 0.11 for the second.

Going from KKRTSIEVRVKGALESHFLKCPKPSAQEITNLADSLQLEKEVVRVWFCNRRQKEKR [S9R] to KKRTSIEVFVKGALESHFLKCPKPSAQEITNLADSLQLEKEVVRVWFCNRRQKEKR [S9F], the abundance fitness falls from -0.018 ± 0.092 to -0.285 ± 0.16.

KKRTSIEVIVKGALESHFLKCPKPSAQEITNLADSLQLEKEVVRVWFCNRRQKEKR [S9I] and KKRTSIEVPVKGALESHFLKCPKPSAQEITNLADSLQLEKEVVRVWFCNRRQKEKR [S9P] are within error of each other in abundance fitness: -0.368 ± 0.19 for the first, -0.068 ± 0.18 for the second.

KKRTSIEVDVKGALESHFLKCPKPSAQEITNLADSLQLEKEVVRVWFCNRRQKEKR [S9D] and KKRTSIEVVVKGALESHFLKCPKPSAQEITNLADSLQLEKEVVRVWFCNRRQKEKR [S9V] are within error of each other in abundance fitness: 0.038 ± 0.14 for the first, -0.132 ± 0.092 for the second.

KKRTSIEVQVKGALESHFLKCPKPSAQEITNLADSLQLEKEVVRVWFCNRRQKEKR [S9Q] and KKRTSIEVMVKGALESHFLKCPKPSAQEITNLADSLQLEKEVVRVWFCNRRQKEKR [S9M] are within error of each other in abundance fitness: 0.067 ± 0.36 for the first, -0.305 ± 0.15 for the second.

KKRTSIEVTVKGALESHFLKCPKPSAQEITNLADSLQLEKEVVRVWFCNRRQKEKR [S9T] and KKRTSIEVWVKGALESHFLKCPKPSAQEITNLADSLQLEKEVVRVWFCNRRQKEKR [S9W] are within error of each other in abundance fitness: -0.051 ± 0.13 for the first, -0.192 ± 0.12 for the second.

KKRTSIEVEVKGALESHFLKCPKPSAQEITNLADSLQLEKEVVRVWFCNRRQKEKR [S9E] and KKRTSIEVKVKGALESHFLKCPKPSAQEITNLADSLQLEKEVVRVWFCNRRQKEKR [S9K] are within error of each other in abundance fitness: 0.072 ± 0.11 for the first, 0.01 ± 0.15 for the second.

KKRTSIETSVKGALESHFLKCPKPSAQEITNLADSLQLEKEVVRVWFCNRRQKEKR [V8T] and KKRTSIEGSVKGALESHFLKCPKPSAQEITNLADSLQLEKEVVRVWFCNRRQKEKR [V8G] are within error of each other in abundance fitness: 0.161 ± 0.1 for the first, 0.055 ± 0.063 for the second.

KKRTSIERSVKGALESHFLKCPKPSAQEITNLADSLQLEKEVVRVWFCNRRQKEKR [V8R] and KKRTSIEFSVKGALESHFLKCPKPSAQEITNLADSLQLEKEVVRVWFCNRRQKEKR [V8F] are within error of each other in abundance fitness: 0.001 ± 0.062 for the first, 0.04 ± 0.27 for the second.

KKRTSIELSVKGALESHFLKCPKPSAQEITNLADSLQLEKEVVRVWFCNRRQKEKR [V8L] and KKRTSIEISVKGALESHFLKCPKPSAQEITNLADSLQLEKEVVRVWFCNRRQKEKR [V8I] are the same in abundance fitness: 0.1 ± 0.08 for the first, 0.1 ± 0.084 for the second.

KKRTSIEASVKGALESHFLKCPKPSAQEITNLADSLQLEKEVVRVWFCNRRQKEKR [V8A] and KKRTSIEKSVKGALESHFLKCPKPSAQEITNLADSLQLEKEVVRVWFCNRRQKEKR [V8K] are within error of each other in abundance fitness: -0.032 ± 0.097 for the first, 0.068 ± 0.11 for the second.

Going from KKRTSIEPSVKGALESHFLKCPKPSAQEITNLADSLQLEKEVVRVWFCNRRQKEKR [V8P] to KKRTSIECSVKGALESHFLKCPKPSAQEITNLADSLQLEKEVVRVWFCNRRQKEKR [V8C], the abundance fitness falls from 0.195 ± 0.12 to -0.171 ± 0.11.

KKRTSIEDSVKGALESHFLKCPKPSAQEITNLADSLQLEKEVVRVWFCNRRQKEKR [V8D] and KKRTSIENSVKGALESHFLKCPKPSAQEITNLADSLQLEKEVVRVWFCNRRQKEKR [V8N] are within error of each other in abundance fitness: -0.075 ± 0.13 for the first, 0.039 ± 0.17 for the second.

KKRTSIEHSVKGALESHFLKCPKPSAQEITNLADSLQLEKEVVRVWFCNRRQKEKR [V8H] and KKRTSIEMSVKGALESHFLKCPKPSAQEITNLADSLQLEKEVVRVWFCNRRQKEKR [V8M] are within error of each other in abundance fitness: -0.052 ± 0.15 for the first, 0.098 ± 0.12 for the second.

Compared with KKRTSIEYSVKGALESHFLKCPKPSAQEITNLADSLQLEKEVVRVWFCNRRQKEKR [V8Y], KKRTSIESSVKGALESHFLKCPKPSAQEITNLADSLQLEKEVVRVWFCNRRQKEKR [V8S] is higher in abundance fitness: -0.369 ± 0.21 for the first, 0.218 ± 0.092 for the second.

Going from KKRTSIEESVKGALESHFLKCPKPSAQEITNLADSLQLEKEVVRVWFCNRRQKEKR [V8E] to KKRTSIEWSVKGALESHFLKCPKPSAQEITNLADSLQLEKEVVRVWFCNRRQKEKR [V8W], the abundance fitness falls from 0.088 ± 0.096 to -0.141 ± 0.1.

Compared with KKRTSIEVSGKGALESHFLKCPKPSAQEITNLADSLQLEKEVVRVWFCNRRQKEKR [V10G], KKRTSIEVSEKGALESHFLKCPKPSAQEITNLADSLQLEKEVVRVWFCNRRQKEKR [V10E] is higher in abundance fitness: -0.241 ± 0.066 for the first, 0.154 ± 0.13 for the second.

Compared with KKRTSIEVSLKGALESHFLKCPKPSAQEITNLADSLQLEKEVVRVWFCNRRQKEKR [V10L], KKRTSIEVSPKGALESHFLKCPKPSAQEITNLADSLQLEKEVVRVWFCNRRQKEKR [V10P] is lower in abundance fitness: -0.042 ± 0.093 for the first, -0.472 ± 0.13 for the second.

KKRTSIEVSTKGALESHFLKCPKPSAQEITNLADSLQLEKEVVRVWFCNRRQKEKR [V10T] and KKRTSIEVSMKGALESHFLKCPKPSAQEITNLADSLQLEKEVVRVWFCNRRQKEKR [V10M] are within error of each other in abundance fitness: -0.023 ± 0.13 for the first, -0.192 ± 0.14 for the second.

KKRTSIEVSCKGALESHFLKCPKPSAQEITNLADSLQLEKEVVRVWFCNRRQKEKR [V10C] showed an abundance fitness of -0.108 ± 0.14.
